Biological target: the molecule itself
Test: cryo-EM structure; ClpX^∆N pseudohexamer 4 µM and ClpP14 1.8 µM (2 µM in the results) in EM buffer (20 mM HEPES, pH 7.5, 100 mM KCl, 25 mM MgCl2, 5 mM ATPγS), 5 min at 25°C before vitrification; doubly capped complexes analysed

B1: one ClpX^∆N E185Q subunit (unit) of the single-chain pseudohexamer (domain or fragment)
chain: not shown
notes: ClpX, E. coli K12, residues 62-424 (ClpX^∆N); In the sample the six units are joined on one chain by six-residue linkers; written alone for the contacts between neighbouring units; also called ClpX^∆N subunit; subunits A-F; source: E. coli strain ER2566, purified, as part of the single-chain pseudohexamer m1
With B1 the “stoichiometry N” value was 6.
